Experimental data reported in patent US20160297889A1 (TORAY INDUSTRIES, published 2016).

Target: T1, CAPRIN-1 protein expressed on the membrane surface of human cancer cells (human, UniProt Q14444 2-709)
T1 sequence (looked up): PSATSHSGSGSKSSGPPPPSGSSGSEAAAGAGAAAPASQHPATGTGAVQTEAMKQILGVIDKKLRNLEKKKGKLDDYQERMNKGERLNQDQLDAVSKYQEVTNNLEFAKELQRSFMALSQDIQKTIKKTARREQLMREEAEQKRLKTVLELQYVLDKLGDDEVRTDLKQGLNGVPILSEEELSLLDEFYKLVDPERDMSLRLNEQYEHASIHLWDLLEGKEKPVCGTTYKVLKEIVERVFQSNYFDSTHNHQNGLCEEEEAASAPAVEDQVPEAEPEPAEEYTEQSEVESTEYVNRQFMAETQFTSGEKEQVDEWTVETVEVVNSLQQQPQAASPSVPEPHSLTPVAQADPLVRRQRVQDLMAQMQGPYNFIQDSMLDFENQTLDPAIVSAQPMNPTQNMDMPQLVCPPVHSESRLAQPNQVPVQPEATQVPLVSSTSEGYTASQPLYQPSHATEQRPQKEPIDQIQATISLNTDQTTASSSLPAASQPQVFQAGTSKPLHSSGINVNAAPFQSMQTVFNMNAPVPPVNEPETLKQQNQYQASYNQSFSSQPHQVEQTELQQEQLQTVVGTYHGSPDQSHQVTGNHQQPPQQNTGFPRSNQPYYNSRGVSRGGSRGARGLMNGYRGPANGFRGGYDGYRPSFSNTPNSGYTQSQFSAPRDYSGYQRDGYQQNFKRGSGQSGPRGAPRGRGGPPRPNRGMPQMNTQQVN
Experiment: cell-based or functional assay

B1: humanized antibody #8 (antibody, V domains shown)
VH: QSLVESGGGLVQPGGSLRLSCAASGFSLSSHSLGWVRQAPGKGLEWIGDIRSGGSAYYANWAKGRFTISRTSSKNTVYLQMNSLRAEDTAVYFCTRTNGPSDLTNRLDLWGQGTLVTVSS
VL: QVLTQSPSSLSASVGDRVTINCQASQSLYNNENLAWFQQKPGKVPKRLIYGASTLASGVSSRFSGSGSGTEFTLTISSLQCEDFAIYYCLGEFSCGSADCFAFGGGTKVEIK
Q: With B1 as the binder, how does the “ADCC cytotoxic activity (51Cr release) on 22Rv1” value read?
A: ≥ 38%

Q: And the “ADCC cytotoxic activity (51Cr release) on A-673” value?
A: ≥ 40%

Q: What about the “ADCC cytotoxic activity (51Cr release) on BT-474” value of the same binder?
A: ≥ 46%

Q: And the “ADCC cytotoxic activity (51Cr release) on Caki-2” value?
A: ≥ 26%

Q: What about the “ADCC cytotoxic activity (51Cr release) on FaDu” value of the same binder?
A: ≥ 35%

Q: And the “ADCC cytotoxic activity (51Cr release) on G-361” value?
A: ≥ 15%

Q: And the “ADCC cytotoxic activity (51Cr release) on HEC-1-A” value?
A: ≥ 40%

Q: What about the “ADCC cytotoxic activity (51Cr release) on HT-29” value of the same binder?
A: ≥ 35%

Q: What about the “ADCC cytotoxic activity (51Cr release) on HT-1080” value of the same binder?
A: ≥ 20%

Q: And the “ADCC cytotoxic activity (51Cr release) on HT-1376” value?
A: ≥ 28%

Q: What about the “ADCC cytotoxic activity (51Cr release) on Hep3B” value of the same binder?
A: ≥ 21%

Q: What about the “ADCC cytotoxic activity (51Cr release) on IM-9” value of the same binder?
A: ≥ 27%

Q: What about the “ADCC cytotoxic activity (51Cr release) on MDA-MB-361” value of the same binder?
A: ≥ 40%

Q: What about the “ADCC cytotoxic activity (51Cr release) on NCI-H2452” value of the same binder?
A: ≥ 31%

Q: And the “ADCC cytotoxic activity (51Cr release) on NCI-N87” value?
A: ≥ 34%

Q: What about the “ADCC cytotoxic activity (51Cr release) on NT/D1” value of the same binder?
A: ≥ 25%

Q: What about the “ADCC cytotoxic activity (51Cr release) on OCI-AML5” value of the same binder?
A: ≥ 15%

Q: What about the “ADCC cytotoxic activity (51Cr release) on OE33” value of the same binder?
A: ≥ 30%

Q: What about the “ADCC cytotoxic activity (51Cr release) on Panc10.5” value of the same binder?
A: ≥ 24%

Q: And the “ADCC cytotoxic activity (51Cr release) on QG56” value?
A: ≥ 38%

Q: What about the “ADCC cytotoxic activity (51Cr release) on RD-ES” value of the same binder?
A: ≥ 31%

Q: What about the “ADCC cytotoxic activity (51Cr release) on RPM11666” value of the same binder?
A: ≥ 30%

Q: What about the “ADCC cytotoxic activity (51Cr release) on Ramos” value of the same binder?
A: ≥ 15%

Q: And the “ADCC cytotoxic activity (51Cr release) on SKOV3” value?
A: ≥ 27%

Q: And the “ADCC cytotoxic activity (51Cr release) on T24” value?
A: ≥ 30%

Q: What about the “ADCC cytotoxic activity (51Cr release) on TGBC14TKB” value of the same binder?
A: ≥ 25%

Q: What about the “ADCC cytotoxic activity (51Cr release) on TT” value of the same binder?
A: ≥ 30%

Q: What about the “ADCC cytotoxic activity (51Cr release) on U-87MG” value of the same binder?
A: ≥ 24%
